The values below come from patent US20230190810A1 (FRED HUTCHINSON CANCER CENTER, published 2023).

Substitutions are numbered along the chain they refer to.

Experiment [1] deals with T1, human full-length CD33 (CD33^FL) on cells (human, UniProt P20138 18-364).
T1 construct: Used for engineered REH/ML-1 sublines overexpressing CD33^FL and for endogenous CD33 on parental AML cell lines; also called Siglec-3
Put plainly: flow cytometry, murine antibody, control = secondary antibody only; REH cells expressing CD33FL. In general terms: Flow cytometry measures light scatter and fluorescence of single cells or particles in a stream.

Experiment [2] deals with T2, purified extracellular domain of human CD33^ΔE2 with C-terminal His and Avi tags (human, UniProt P20138 18-259).
T2 construct: extracellular domain; also called CD33^ΔE2 ectodomain; not shown: C-terminal His and Avi tags
Put plainly: SPR (Carterra), antibody or hybridoma supernatant captured on a protein A/G lawn, CD33ΔE2 antigen in solution. From the text:
(§1) FIG. 8. A kinetic profile was established from purified anti-CD33 antibodies and hybridoma supernatants by use of surface plasmon resonance technology (SPR) from the Carterra instrument. SPR is a great way to estimate the kinetic rate constants of binding interactions, of which can fit to a 1:1 Langmuir binding model to determine the on-rate (Kₒₙ) and off-rate (Koff). Both of these rate parameters allow for the calculation of the dissociation rate constant (Kd), referred to as binding affinity. The antibody clones were captured as an array on a protein A/G lawn, which was immobilized to a HC30M chip. The first kinetic experiment used a CD33^FL antigen which started at a concentration of 2 μM preceding a 4-fold titration to 2 nM. Following 10 HBSTE buffer blanks, 6 injections from low to high concentrations were subsequently flowed over the array to assess kinetics of each clone printed to the array, 1-min baseline, 5-min association, 10-min dissociation. The chip was then regenerated with 0.85% phosphoric acid pH 1.7 for a fresh reprint of the same array of clones to the protein A/G lawn, in case any lingering antigen stayed bound to the array preventing an interaction with the 2nd antigen of interest, of which CD33^ΔE2 flowed over the array of antibodies. […]

Experiment [3] deals with T3, purified extracellular domain of human CD33^FL with C-terminal His and Avi tags (human, UniProt P20138 18-259).
T3 construct: also called CD33^FL ectodomain; CD33^FL antigen; not shown: C-terminal His and Avi tags
Description: SPR (Biacore); column 'CD33FL Biacore kD (nM)'. (In general: In SPR one partner is held on a chip, and binding of the other changes the refractive index at the surface.)

For experiment [4], the target named is T3, purified extracellular domain of human …. Put plainly: SPR (Carterra), antibody captured on a protein A/G lawn, CD33FL antigen in solution; column 'CD33FL kD (nM), 4 µg/mL' (purified antibody). From the text:
(§2) FIG. 8. A kinetic profile was established from purified anti-CD33 antibodies and hybridoma supernatants by use of surface plasmon resonance technology (SPR) from the Carterra instrument. SPR is a great way to estimate the kinetic rate constants of binding interactions, of which can fit to a 1:1 Langmuir binding model to determine the on-rate (Kₒₙ) and off-rate (Koff). Both of these rate parameters allow for the calculation of the dissociation rate constant (Kd), referred to as binding affinity. The antibody clones were captured as an array on a protein A/G lawn, which was immobilized to a HC30M chip. The first kinetic experiment used a CD33^FL antigen which started at a concentration of 2 μM preceding a 4-fold titration to 2 nM. Following 10 HBSTE buffer blanks, 6 injections from low to high concentrations were subsequently flowed over the array to assess kinetics of each clone printed to the array, 1-min baseline, 5-min association, 10-min dissociation. The chip was then regenerated with 0.85% phosphoric acid pH 1.7 for a fresh reprint of the same array of clones to the protein A/G lawn, in case any lingering antigen stayed bound to the array preventing an interaction with the 2nd antigen of interest, of which CD33^ΔE2 flowed over the array of antibodies. Carterra kinetic software was used to process the data to fit the raw data to kinetic curves for each concentration of antigen injected over the array.

Experiment [5] has the same target. Put plainly: SPR (Carterra), antibody captured on a protein A/G lawn, CD33FL antigen in solution; column 'CD33FL kD (nM), 1 µg/mL' (purified antibody).
Text: as §2

Experiment [6] concerns the target T1, human full-length CD33 (CD33^FL) on …. Description: flow cytometry, murine antibody, control = secondary antibody only; REH cells expressing CD33FL. The source holds these as a separate data set.
The target in experiment [7] is T2, purified extracellular domain of human …. Description: SPR, Biacore T100, 25 C; 1H7 captured on anti-mouse IgG, purified CD33^ΔE2 ectodomain as analyte; target CD33^ΔE2 (lacking V-set domain). Here is the method: (§3) FIG. 9. SPR assessment of purified extracellular domains from CD33^FL or CD33^ΔE2 binding to captured 1H7. Black lines are data and gray lines are the model fits. SPR experiments were performed at 25° C. on a Biacore T100 (Cytiva) using a running buffer of 10 mM HEPES, pH 7.4, 150 mM NaCl, 3 mM EDTA, 0.05% surfactant P20 with 0.1 mg/mL bovine serum albumin. Rabbit anti-mouse IgG was amine coupled to 2 flow cells of a Series S CM5 chip (7300 RUs). 1H7 at 0.2 μg/mL was injected at 10 μL/min over 1 flow cell of immobilized anti-mouse IgG for either 2 mins or 5 mins to capture 94 or 163 RUs of antibody for the CD33^FL and CD33^ΔE2 binding experiments, respectively. Purified ectodomains for CD33^FL and CD33^ΔE2 (engineered with C-terminal His and Avi tags) were run as concentration series at 35 μL/min over both the captured antibody and anti-mouse IgG alone (reference) surfaces. CD33^FL was injected for 10 mins and allowed to dissociate for 15 mins. CD33^ΔE2 was injected for 7 mins and dissociated for 7 mins. Ectodomain concentrations (serial 2-fold dilutions starting at 75 nM for CD33^FL and 2 μM for CD33^ΔE2) were run in duplicate, randomized, and included a buffer blank every 4th injection. The CM5 chip was regenerated with 10 mM glycine, pH 1.7 for 3 minutes at 20 μL/min and 1H7 recaptured prior to each CD33 injection. Data was double referenced and analyzed in BiaEval 2.0.4.

Experiment [8] addresses T3, purified extracellular domain of human …. Description: SPR, Biacore T100, 25 C; 1H7 captured on anti-mouse IgG, purified CD33^FL ectodomain as analyte; target CD33^FL (full-length ectodomain). The method, then: as §3
The target of experiment [9] is T4, artificial CD33 with deletion of exons 3 and 4, lacking the C2-set domain (CD33^ΔE3-4), on cells (human, UniProt P20138 1-364).
T4 construct: it probably still carries the CD33 signal peptide (aa 1-17), which is not part of the protein on cells; also called CD33 V-set construct (exon 3 and 4 deleted)
Put plainly: flow cytometry on engineered cells.

Experiment [10] addresses T2, purified extracellular domain of human …. Description: SPR (Carterra), antibody captured on a protein A/G lawn, CD33ΔE2 antigen in solution; column 'CD33ΔE2 kD (nM), 1 µg/mL' (purified antibody).
Text: as §1

Experiment [11] has the same target. Put plainly: SPR (Carterra), antibody captured on a protein A/G lawn, CD33ΔE2 antigen in solution; column 'CD33ΔE2 kD (nM), 4 µg/mL' (purified antibody).
Text: as §1

The target of experiment [12] is T1, human full-length CD33 (CD33^FL) on …. Description: flow cytometry, murine antibody, control = secondary antibody only; ML-1 parental cells (endogenous CD33) and REH cells expressing CD33FL.

T2 sequence (P20138 140-259 limits assumed, stated change not applied): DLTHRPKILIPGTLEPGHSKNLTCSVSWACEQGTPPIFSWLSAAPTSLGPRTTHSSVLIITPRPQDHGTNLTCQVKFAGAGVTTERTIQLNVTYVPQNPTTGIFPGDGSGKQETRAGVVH
T1 sequence (P20138 18-364): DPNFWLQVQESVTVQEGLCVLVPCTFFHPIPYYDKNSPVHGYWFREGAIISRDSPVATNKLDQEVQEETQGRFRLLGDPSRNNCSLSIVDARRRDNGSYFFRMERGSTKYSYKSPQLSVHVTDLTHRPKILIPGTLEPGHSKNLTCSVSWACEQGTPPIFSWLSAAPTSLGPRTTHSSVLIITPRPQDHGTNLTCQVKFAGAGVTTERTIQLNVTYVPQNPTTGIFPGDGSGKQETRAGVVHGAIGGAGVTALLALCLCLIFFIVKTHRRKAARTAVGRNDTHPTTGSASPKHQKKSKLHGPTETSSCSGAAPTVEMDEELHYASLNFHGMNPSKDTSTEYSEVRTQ
T3 sequence (P20138 18-259): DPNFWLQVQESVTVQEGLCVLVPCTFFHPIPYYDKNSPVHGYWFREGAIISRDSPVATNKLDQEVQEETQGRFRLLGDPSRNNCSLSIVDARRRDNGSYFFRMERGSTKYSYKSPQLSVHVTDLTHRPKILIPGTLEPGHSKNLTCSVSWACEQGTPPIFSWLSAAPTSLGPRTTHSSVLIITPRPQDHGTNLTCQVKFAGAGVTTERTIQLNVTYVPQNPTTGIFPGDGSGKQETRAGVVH
T4 sequence (P20138 other isoform, or with tags, fused parts or gaps mutant limits assumed): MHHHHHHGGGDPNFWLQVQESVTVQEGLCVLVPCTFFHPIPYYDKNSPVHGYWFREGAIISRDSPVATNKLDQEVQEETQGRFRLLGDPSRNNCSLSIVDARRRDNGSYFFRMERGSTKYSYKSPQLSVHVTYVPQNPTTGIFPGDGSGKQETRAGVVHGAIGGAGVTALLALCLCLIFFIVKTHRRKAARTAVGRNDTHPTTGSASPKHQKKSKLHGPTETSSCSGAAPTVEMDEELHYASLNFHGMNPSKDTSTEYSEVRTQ

B1: 13E11 (antibody, V domains shown)
VH: KVQLQQSGAELVKPGASVKLSCKASGYTFTDYTLHWLKQRSGQGLEWIGWFYPTSGSINYNERFKDKATLTADKSSSTVYMELSRLTSVDSAVYFCARHKFGFDYWGQGTTLTVSS
VL: DIVLTQSPVSLAVSLGQRATISCKASHGVEYAGAHYMNWYQQKPGQPPKLLIYAASNLGSGIPPRFSGSGSGTDFTLNIHPVEEEDSATYYCQQSNEDPRTFGGGTKLEIK
notes: also called 13E11 antibody; murine CD33^C2-set-specific antibody, clone 13E11
Take B1: the binding result in experiment [1] was “no binding”.

B2: 5D12 antibody (murine CD33^V-set antibody) (antibody, V domains shown)
VH: QVQLQQSGAEVVKPGASVKISCRASGYAFSNYWMNWVKQRPGKGLEWIGQIYPGNFNTDYNGQFKGKATLTVDKSSNTAYMQLSSLTSEDSAVYFCARFFDFGAYFTLDYWGQGTSVTVSS
VL: DIKMTQSPSSIYASLGERVTINCKASQDIKSYLSWYQQKPWKSPKTLIYYATTLADGVPSRFSGSGSGQDYSLTISSLESDDTATYYCLHHGESPWTFGEGTKLEIK
notes: Murine hybridoma antibody
For the molecule B2, the binding result in experiment [2] is on record as “no binding”. For the same molecule, the Kd (commonly the free concentration of one partner at which half of the binding sites on the other are occupied at equilibrium, for simple one-to-one binding) in experiment [3] worked out at 0.122 nM; in [4], 1.1 nM; in experiment [5], 2.3 nM.

B3: 8F5 antibody (murine CD33^V-set antibody) (antibody, V domains shown)
VH: EVKLVESGGGLVQPGGSLKLSCAASGFTFSDFYMYWVRQTPEKRLEWVAFISNAGVTTYYPDTVEGRFTISRDNAKNTLYLQMSRLMSEDTAMYYCTKSDYDGAWFPYWGQGTLVTVS
VL: DIVMSQSPSSLPVSVGEKVTLSCKSSQSLLYSRNQYNFLAWYQQRPGQSPKLLIYWASTRESGVPDRFTGSGSGTDFTLTISSVKAEDLAVYYCQQYYSYPYTFGGGTKLEIK
notes: Murine hybridoma antibody
On to B3, for which, in experiment [2], the binding result is “no binding”. Also, the Kd in experiment [3] is 8 nM; in [4], 6.1 nM; in experiment [5], 11 nM.

B4: 2D5 antibody (murine CD33^PAN antibody) (antibody, V domains shown)
VH: QVQLQQSGAELVRPGASVTLSCKASGYTFTDYDMHWVKQTPVHGLEWIGAIDPETGGTAYNQNFKGKAILTVDKSSRIAYMELRSLTSEDSAVFYCTSDYDYFGVWGTGTTVTVSS
VL: DIVMTQSQKFMSTSVGDRVSVTCKASQNVGTNVVWYHKKPGQSPKGLIYSASDRYSGVPDRFTGSGSGTDFTLTINNVQSEDLAEYFCQQYNIYPYTFGGGTKLEIK
notes: Murine hybridoma antibody
Consider B4, for which, in experiment [6], the binding result was “binds”.

B5: 1H7 antibody (murine CD33^PAN antibody, hybridoma clone and recombinant 1H7) (antibody, V domains shown)
VH: QVQLQQSGAELVKPGASVKISCKASGYAFSNYWMNWVKQRPGKGLEWIGQINPGDGDTNYNGKFKGKATLTADKSSSTAYMQLSSLTSEDSAVYFCAREDRDYFDYWGQGTTLTVSS
VL: DIQMTQTTSSLSASLGDRVTISCRASQDINYYLNWYQQKPDGTVKLLIYYSSRLHSGVPSRFSGSGSGTDFSLTISNLEQEDIATYFCQQDDALPYTFGGGTKLEIK
notes: Murine antibody (captured on anti-mouse IgG in the Biacore run); both are treated as one molecule; also called clone 1H7
As to B5, the equilibrium dissociation constant (Kd) in experiment [7] worked out at 280 nM; in experiment [8] it was 5.35 nM; in [4], 4.2 nM; in experiment [5] it was 0.674 nM; in [10], 5.3 nM; in experiment [11] it was 7.6 nM. Also, the binding result in experiment [9] is on record as “no binding”.

B6: 9G2 antibody (murine CD33^PAN antibody) (antibody, V domains shown)
VH: EVKLVESEGGLVQPGSSMKLSCTASGFTFSDYYMSWVRQVPEKGLEWVASINYDGGSTYYLDSLKSRFIISRDNTKNILYLQMSSLKSEDTATYYCARDRGDGDYFDYWGQGTTLTVSS
VL: B5 VL with R24K, A25T, N30Y, Y31N, S51T, S65G, F71Y, D91G, A93T, Y96W
notes: Murine hybridoma antibody
Turning to B6, the binding result in experiment [12] is given as “binds”.

B7: 6H9 antibody (murine CD33^PAN antibody) (antibody, V domains shown)
VH: EVMLVESGGGLVKPGGSLKLSCAASGFTFSSYTMSWVRQTPEKRLEWVATISGDGGNTYYSDSVKGRFTISRDNAKNTLYLQMSSLRSEDTALYYCARQGTGTDYFDYWGQGTTLTVS
VL: B5 VL with Y31I, S51T, F71Y, D91G, A93T, Y96W
notes: Murine hybridoma antibody
In the case of B7, the binding result in experiment [12] is “binds”.
